Data as given in US8962697.

T1: LAR-7047
T1 chain: VFFRRQTA

T2: LAR-7048
T2 chain: PRRICV

T3: LAR-7009
T3 chain: PRRRRPRQITA


Experiments:
[1] = target: T1, LAR-7047
[2] = target: T2, LAR-7048
[3] = target: T3, LAR-7009

Protein	degradation of the control peptide [1]	degradation of the control peptide [2]	hydrolysis of the peptide substrate, fragments by mass spectrometry [3]
Aureolysin (protein) AAATGTGKGVLGDTKDININSIDGGFSLEDLTHQGKLSAYNFNDQTGQATLITNEDENFVKDDQRAGVDANYYAKQTYDYYKNTFGRESYDNHGSPIVSLTHVNHYGGQDNRNNAAWIGDKMIYGDGDGRTFTNLSGANDVVAHELTHGVTQETANLEYKDQSGALNESFSDVFGYFVDDEDFLMGEDVYTPGKEGDALRSMSNPEQFGQPSHMKDYVYTEKDNGGVHTNSGIPNKAAYNVIQAIGKSKSEQIYYRALTEYLTSNSNFKDCKDALYQAAKDLYDEQTAEQVYEAWNEVGVE	No degradation was observed in these systems	No degradation was observed in these systems	–
Matrix Metalloproteinase-9 (protein) MRTPRCGVPDLGRFQTFEGDLKWHHHNITYWIQNYSEDLPRAVIDDAFARAFALWSAVTPLTFTRVYSRDADIVIQFGVAEHGDGYPFDGKDGLLAHAFPPGPGIQGDAHFDDDELWSLGKGVVVPTRFGNADGAACHFPFIFEGRSYSACTTDGRSDGLPWCSTTANYDTDDRFGFCPSERLYTQDGNADGKPCQFPFIFQGQSYSACTTDGRSDGYRWCATTANYDRDKLFGFCPTRADSTVMGGNSAGELCVFPFTFLGKEYSTCTSEGRGDGRLWCATTSNFDSDKKWGFCPDQGYSLFLVAAHEFGHALGLDHSSVPEALMYPMYRFTEGPPLHKDDVNGIRHLYGPRPEPEPRPPTTTTPQPTAPPTVCPTGPPTVHPSERPTAGPTGPPSAGPTGPPTAGPSTATTVPLSPVDDACNVNIFDAIAEIGNQLYLFKDGKYWRFSEGRGSRPQGPFLIADKWPALPRKLDSVFEERLSKKLFFFSGRQVWVYTGASVLGPRRLDKLGLGADVAQVTGALRSGRGKMLLFSGRRLWRFDVKAQMVDPRSASEVDRMFPGVPLDTHDVFQYREKAYFCQDRFYWRVSSRSELNQVDQVGYVTYDILQCPED	No degradation was observed in these systems	No degradation was observed in these systems	Degradation of LAR-7009 ... produced specific fragment pick: 1121.66 corresponding to [..] sequence
